This is an account of results in PMC5023487 (Traffic (Copenhagen, Denmark), 2016).

Where “and” joins values, the source holds several entries; their conditions need not be identical. Identical values can stand only once.

A word on the stoichiometry N: it is the number of molecules, sites or subunits per partner or assembly.

The data set deals with the molecule itself. The data set is described as follows: SEC. (In general: SEC sorts molecules by how far they enter the pores of the column.)

B1: Recombinant His6-Sec18p (enzyme, S. cerevisiae, UniProt P18759 1-758, looked up)
chain: MFKIPGFGKAAANHTPPDMTNMDTRTRHLKVSNCPNNSYALANVAAVSPNDFPNNIYIIIDNLFVFTTRHSNDIPPGTIGFNGNQRTWGGWSLNQDVQAKAFDLFKYSGKQSYLGSIDIDISFRARGKAVSTVFDQDELAKQFVRCYESQIFSPTQYLIMEFQGHFFDLKIRNVQAIDLGDIEPTSAVATGIETKGILTKQTQINFFKGRDGLVNLKSSNSLRPRSNAVIRPDFKFEDLGVGGLDKEFTKIFRRAFASRIFPPSVIEKLGISHVKGLLLYGPPGTGKTLIARKIGTMLNAKEPKIVNGPEILSKYVGSSEENIRNLFKDAEAEYRAKGEESSLHIIIFDELDSVFKQRGSRGDGTGVGDNVVNQLLAKMDGVDQLNNILVIGMTNRKDLIDSALLRPGRFEVQVEIHLPDEKGRLQIFDIQTKKMRENNMMSDDVNLAELAALTKNFSGAEIEGLVKSASSFAINKTVNIGKGATKLNTKDIAKLKVTREDFLNALNDVTPAFGISEEDLKTCVEGGMMLYSERVNSILKNGARYVRQVRESDKSRLVSLLIHGPAGSGKTALAAEIALKSGFPFIRLISPNELSGMSESAKIAYIDNTFRDAYKSPLNILVIDSLETLVDWVPIGPRFSNNILQMLKVALKRKPPQDRRLLIMTTTSAYSVLQQMDILSCFDNEIAVPNMTNLDELNNVMIESNFLDDAGRVKVINELSRSCPNFNVGIKKTLTNIETARHDEDPVNELVELMTQSA
As for B1, the “stoichiometry N” value was 6 and 2.
